Patent US20050227306

What was measured:
[1] = target: His6-tetraCys-X-MBP protease substrate 22-F [MBP: P0AEX9]
[2] = target: His6-tetraCys-X-MBP protease substrate 23-F [MBP: P0AEX9]
[3] = target: His6-tetraCys-X-MBP protease substrate 21-F [MBP: P0AEX9]
[4] = target: His6-tetraCys-X-MBP protease substrate 25-F [MBP: P0AEX9]
[5] = target: His6-tetraCys-X-MBP protease substrate 24-F [MBP: P0AEX9]
[6] = target: His6-tetraCys-X-MBP protease substrate 26-F [MBP: P0AEX9]
[7] = target: At3g03410 fusion protein expressed from pVP14
[8] = target: At3g16990 fusion protein expressed from pVP15

B1: tobacco etch virus (TEV) protease (protein)
chain: GESLFKGPRDYNPISSTICHLTNESDGHTTSLYGIGFGPFIITNKHLFRRNNGTLLVQSLHGVFKVKNTTTLQQHLIDGRDMIIIRMPKDFPPFPQKLKFREPQREERICLVTTNFQTKSMSSMVSDTSCTFPSSDGIFWKHWIQTKDGQCGSPLVSTRDGFIVGIHSASNFTNTNNYFTSVPKNFMELLTNQEAQQWVSGWRLNADSVLWGGHKVFMSKPEEPFQPVKEATQLMNELVYSQ
For B1, the relative rate of reaction (initial proteolysis rate by fluorescence anisotropy, normalised to the cognate substrate) (relative rate) [1] was 0, the relative rate of reaction (initial proteolysis rate by fluorescence anisotropy, normalised to the cognate substrate) (relative rate) [2] was -0.02 and the “fluorescence anisotropy and SDS-PAGE” value [3] was “underwent a minor amount of proteolysis”. For the same protein, the relative rate of reaction (initial proteolysis rate by fluorescence anisotropy, normalised to the cognate substrate) (relative rate) [3] was 0.01, the relative rate of reaction (initial proteolysis rate by fluorescence anisotropy, normalised to the cognate substrate) (relative rate) [4] was 0 and the relative rate of reaction (initial proteolysis rate by fluorescence anisotropy, normalised to the cognate substrate) (relative rate) [5] was -0.01. The relative rate of reaction (initial proteolysis rate by fluorescence anisotropy, normalised to the cognate substrate) (relative rate) [6] was 1, the “specific reaction rate (slope of initial proteolysis rate versus protease concentration)” value [6] was “TEV protease; 17.3±0.7” and the “fluorescence anisotropy over time” value [7] was “time-dependent decreases in anisotropy”. The “fluorescence anisotropy over time” value [8] was “a time-dependent decrease in anisotropy was observed”.
